Values of other authors as cited in publication PMC10178479.
pKi: −log10 of the molar value.

Molecular target: Mint2 (Homo sapiens) (UniProt Q99767)
Sequence of UniProt Q99767 (Q99767 whole entry): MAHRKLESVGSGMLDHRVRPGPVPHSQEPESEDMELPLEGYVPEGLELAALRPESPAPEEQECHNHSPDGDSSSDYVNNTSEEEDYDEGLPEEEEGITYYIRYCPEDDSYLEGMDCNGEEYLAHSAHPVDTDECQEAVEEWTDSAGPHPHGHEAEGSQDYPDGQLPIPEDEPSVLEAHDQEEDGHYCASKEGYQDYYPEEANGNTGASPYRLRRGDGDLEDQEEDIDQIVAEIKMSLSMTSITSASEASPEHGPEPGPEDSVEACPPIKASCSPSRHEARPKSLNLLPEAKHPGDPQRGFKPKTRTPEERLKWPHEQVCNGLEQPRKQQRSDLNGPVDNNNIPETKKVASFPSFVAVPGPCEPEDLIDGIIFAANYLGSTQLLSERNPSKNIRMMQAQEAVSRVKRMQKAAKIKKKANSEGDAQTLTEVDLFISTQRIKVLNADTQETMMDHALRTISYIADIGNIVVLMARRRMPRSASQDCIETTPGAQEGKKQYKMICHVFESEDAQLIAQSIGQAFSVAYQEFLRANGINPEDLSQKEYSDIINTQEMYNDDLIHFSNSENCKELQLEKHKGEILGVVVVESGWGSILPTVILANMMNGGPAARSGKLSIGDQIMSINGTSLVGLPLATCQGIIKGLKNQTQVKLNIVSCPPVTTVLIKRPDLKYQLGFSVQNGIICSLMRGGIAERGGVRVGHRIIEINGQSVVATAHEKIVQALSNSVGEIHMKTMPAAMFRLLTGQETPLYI

pKi: 5.40
Substance: APP peptide (APPWT)
